According to patent publication US20030152975A1:

Target: INF1 expressed in planta (FMV 35S promoter, PR1a signal peptide - INF1) (Phytophthora infestans (US-8 genotype))
Assay: cell-based or functional assay

Q: For “Nhr1 expressed from the cosmid Nhr1 clone (tobacco genomic DNA in binary cosmid 04541)”, which necrosis percentage (average of 31 leaves), 78 hai is on record?
A: Its necrosis percentage (average of 31 leaves), 78 hai is 11%.

Q: And the necrosis percentage (average of 31 leaves), 94 hai?
A: The necrosis percentage (average of 31 leaves), 94 hai was 19.8%.

Q: What about the necrosis percentage (average of 31 leaves), 102 hai of the same substance?
A: Its necrosis percentage (average of 31 leaves), 102 hai is 26%.

Q: What about the necrosis percentage (average of 31 leaves), 120 hai of the same substance?
A: The necrosis percentage (average of 31 leaves), 120 hai was 28.9%.

Q: And the necrosis percentage (average of 31 leaves), 140 hai?
A: The necrosis percentage (average of 31 leaves), 140 hai was 31%.
